Test results published in patent US20240002331A1 (TIDAL THERAPEUTICS, published 2024).
Blank lines part the entries; values can stand above or below the molecule they belong to.

What was measured:
[1] = target: mouse CD8 on primary murine T-cells (murine) (UniProt P01731); experiment: in vivo, DiI-labelled targeted LNPs injected i.v. in BALB/c mice, flow cytometry of blood 24 hours after injection; untargeted LNPs <2%
[2] = target: mouse CD4 on primary murine T-cells (murine) (UniProt P06332); experiment: in vivo, DiI-labelled targeted LNPs injected i.v. in BALB/c mice, flow cytometry of blood 24 hours after injection; untargeted LNPs ˜2%
mouse CD4 on primary murine T-cells (murine), sequence (P06332 27-457): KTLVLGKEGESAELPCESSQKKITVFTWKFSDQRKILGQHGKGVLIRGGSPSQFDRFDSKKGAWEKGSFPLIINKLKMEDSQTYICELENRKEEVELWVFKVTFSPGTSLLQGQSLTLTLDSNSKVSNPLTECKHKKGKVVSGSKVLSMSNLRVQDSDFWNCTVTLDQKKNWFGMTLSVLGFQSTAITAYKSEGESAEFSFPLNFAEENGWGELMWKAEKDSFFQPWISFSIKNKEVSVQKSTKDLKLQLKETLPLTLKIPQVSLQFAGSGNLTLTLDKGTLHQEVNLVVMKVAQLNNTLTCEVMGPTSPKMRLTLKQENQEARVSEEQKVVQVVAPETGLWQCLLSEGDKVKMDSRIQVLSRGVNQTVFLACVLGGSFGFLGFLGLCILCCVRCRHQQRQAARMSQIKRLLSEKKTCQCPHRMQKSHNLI

[3] = target: T1, CD20 on Raji (B-cell) cells (UniProt P11836 1-297, limits assumed); experiment: cell-based or functional assay
T1 sequence (looked up): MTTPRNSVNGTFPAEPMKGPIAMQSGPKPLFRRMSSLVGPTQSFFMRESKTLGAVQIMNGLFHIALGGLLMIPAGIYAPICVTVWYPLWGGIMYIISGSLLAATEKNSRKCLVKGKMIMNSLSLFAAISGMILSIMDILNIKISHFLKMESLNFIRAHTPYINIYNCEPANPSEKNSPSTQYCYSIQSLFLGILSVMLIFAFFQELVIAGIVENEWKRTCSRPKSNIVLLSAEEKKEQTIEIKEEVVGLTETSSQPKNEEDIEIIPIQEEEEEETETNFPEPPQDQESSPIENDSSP

[4] = target: T2, human CD2 on primary human T-cells (human, UniProt P06729 25-351); experiment: DiI-labelled LNP with inserted Fab conjugate on primary human CD3+ T cells, flow cytometry
T2 construct: whole, on cells
T2 sequence (looked up): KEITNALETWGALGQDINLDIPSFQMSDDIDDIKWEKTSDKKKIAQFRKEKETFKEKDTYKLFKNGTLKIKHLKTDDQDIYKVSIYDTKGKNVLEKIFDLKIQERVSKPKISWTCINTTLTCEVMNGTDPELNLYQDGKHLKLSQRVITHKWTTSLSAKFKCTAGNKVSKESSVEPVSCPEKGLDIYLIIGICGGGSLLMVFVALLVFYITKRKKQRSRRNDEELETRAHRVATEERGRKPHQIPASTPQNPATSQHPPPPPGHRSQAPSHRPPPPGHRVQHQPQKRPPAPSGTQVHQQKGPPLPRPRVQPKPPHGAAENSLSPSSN

[5] = target: T3, human CD8 on primary human cells (CD8 T-cells, NK-cells) (human, UniProt P01732 22-235); experiment: DiI-labelled LNP with inserted Fab conjugate, human whole blood, 24 h, flow cytometry (% DiI+ and DiI MFI) on CD4 and CD8 T-cells
T3 construct: whole, on cells; also called CD8 receptor
T3 sequence (P01732 22-235): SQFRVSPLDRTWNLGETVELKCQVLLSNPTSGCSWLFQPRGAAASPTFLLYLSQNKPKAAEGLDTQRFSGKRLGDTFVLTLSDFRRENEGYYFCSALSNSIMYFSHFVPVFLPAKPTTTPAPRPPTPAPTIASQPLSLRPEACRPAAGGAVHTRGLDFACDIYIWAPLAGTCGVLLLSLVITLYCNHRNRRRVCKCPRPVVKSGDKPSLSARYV

[6] = target: T4, human CD7 on primary human T-cells (human, UniProt P09564 26-240); experiment: DiI-labelled LNP with inserted Nb conjugate on primary human CD3+ T cells, flow cytometry
T4 construct: whole, on cells
T4 sequence (looked up): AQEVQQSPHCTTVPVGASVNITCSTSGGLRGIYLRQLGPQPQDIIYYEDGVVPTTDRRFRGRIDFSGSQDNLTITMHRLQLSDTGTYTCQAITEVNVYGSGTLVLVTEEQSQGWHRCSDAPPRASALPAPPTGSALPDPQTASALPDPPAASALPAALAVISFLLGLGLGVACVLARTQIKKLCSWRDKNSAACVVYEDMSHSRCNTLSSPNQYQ

mouse CD8 on primary murine T-cells (murine), sequence (P01731 28-247): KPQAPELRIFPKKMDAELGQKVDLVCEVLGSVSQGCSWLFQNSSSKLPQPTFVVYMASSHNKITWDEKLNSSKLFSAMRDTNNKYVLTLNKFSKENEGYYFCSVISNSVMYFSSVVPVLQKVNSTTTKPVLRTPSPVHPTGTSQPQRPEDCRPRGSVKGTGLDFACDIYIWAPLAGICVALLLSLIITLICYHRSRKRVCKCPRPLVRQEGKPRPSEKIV

Molecule: anti-mouse CD8 Fab YTS156.7.7, inserted in LNPs
% of CD3+CD8+ T-cells in the blood with LNP-association (DiI+) [1]: 78%

Molecule: anti-mouse CD4 Fab GK1.5, inserted in LNPs
% of the CD3+CD4+ cell population DiI-positive [2]: 67%

B1: TTR-023 anti-CD20 (Leu-16) CAR (other)
chain: DYKAKEVQLQQSGAELVKPGASVKMSCKASGYTFTSYNMHWVKQTPGQGLEWIGAIYPGNGDTSYNQKFKGKATLTADKSSSTAYMQLSSLTSEDSADYYCARSNYYGSSYWFFDVWGAGTTVTVSSGGGSGGGSGGGGSSDIVLTQSPAILSASPGEKVTMTCRASSSVNYMDWYQKKPGSSPKPWIYATSNLASGVPARFSGSGSGTSYSLTISRVEAEDAATYYCQQWSFNPPTFGGGTKLEIKGGGGSAAAIEVMYPPPYLDNEKSNGTIIHVKGKHLCPSPLFPGPSKPFWVLVVVGGVLACYSLLVTVAFIIFWVRSKRSRLLHSDYMNMTPRRPGPTRKHYQPYAPPRDFAAYRSRVKFSRSAEPPAYQQGQNQLYNELNLGRREEYDVLDKRRGRDPEMGGKPRRKNPQEGLYNELQKDKMAEAYSEIGMKGERRRGKGHDGLYQGLSTATKDTYDALHMQALPPR
% of dead Raji cells in co-culture with CAR-T cells (Lipid 9 or DLin-KC3-DMA LNPs), against mCherry transfected T-cells [3]: 4 fold | % of dead Raji cells in co-culture with CAR-T cells (Lipid 15 or DLin-KC3-DMA LNPs), against mCherry transfected T-cells [3]: 4 fold

B2: anti-CD2 9.6 Fab NoDS, lipid conjugate (Fab, V domains shown)
VH: QVQLQQPGAELVRPGSSVKLSCKASGYTFTRYWIHWVKQRPIQGLEWIGNIDPSDSETHYNQKFKDKATLTVDKSSGTAYMQLSSLTSEDSAVYYCATEDLYYAMEYWGQGTSVTVSS
VL: NIMMTQSPSSLAVSAGEKVTMTCKSSQSVLYSSNQKNYLAWYQQKPGQSPKLLIYWASTRESGVPDRFTGSGSGTDFTLTISSVQPEDLAVYYCHQYLSSHTFGGGTKLEIKR
modifications: DSPE-PEG-maleimide coupled to the C-terminal cysteine in the heavy chain (methods of Example 4)
notes: Inserted in LNPs
binding result [4]: binds

Second part, the molecule after the results:

binding result [5]: no binding
B3: mutOKT8-Fab (non-functional mutated OKT8), DSPE-PEG (2k) lipid conjugate (Fab, V domains shown)
VH: QVQLVQSGAEDKKPGASVKVSCKASGFNIKDTYIHWVRQAPGQGLEWMGRIDPANDNTLYASKFQGRVTITADTSSNTAYMELSSLRSEDTAVYYCGRGAGAYVFDHWGQGTTVTVSS
VL: DIVMTQSPSSLSASVGDRVTITCRTSRSISAALAWYQEKPGKAPKLLIYSGSTLQSGVPSRFSGSGSGTDFTLTISSLQPEDFATYYCQQHNENPLTFGQGTKVEIKR
modifications: DSPE-PEG (2k)-maleimide coupled to the C-terminal cysteine in the heavy chain (conjugated using similar methods as hSP34)
notes: Negative control, inserted in mRNA LNPs; also called muOKT8

binding result [6]: binds
B4: Anti-CD7 V1 Nb, lipid conjugate (VHH)
VHH: DVQLQESGGGLVQAGGSLRLSCAVSGYPYSSYCMGWFRQAPGKEREGVAAIDSDGRTRYADSVKGRFTISQDNAKNTLYLQMNRMKPEDTAMYYCAARFGPMGCVDLSTLSFGHWGQGTQVTVSI
modifications: conjugated to DSPE-3.4K PEG-maleimide (the cysteine is not named in the example)
notes: The entry includes the C-terminal spacer, cysteine and His tag; Inserted in LNPs; also called αCD7

binding result [4]: binds
B5: anti-CD2 TS2/18.1 Fab NoDS, lipid conjugate (Fab, V domains shown)
VH: EVQLVESGGGLVMPGGSLKLSCAASGFAFSSYDMSWVRQTPEKRLEWVAYISGGGFTYYPDTVKGRFTLSRDNAKNTLYLQMSSLKSEDTAMYYCARQGANWELVYWGQGTLVTVSA
VL: DIVMTQSPATLSVTPGDRVFLSCRASQSISDFLHWYQQKSHESPRLLIKYASQSISGIPSRFSGSGSGSDFTLSINSVEPEDVGVYFCQNGHNFPPTFGGGTKLEIKR
modifications: DSPE-PEG-maleimide coupled to the C-terminal cysteine in the heavy chain (methods of Example 4)
notes: Inserted in LNPs
